This data set in a line: yeast display, Sf9 membrane polyspecificity reagent, FACS + sequencing; frameworks hold sequencing errors. The method, boiled down:
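Synthetic nanobody libraries on Saccharomyces cerevisiae BJ5465 were galactose-induced for 36–48 hours, stained 1 hour at 4 °C with 10% biotinylated, detergent-solubilized Sf9 membrane reagent and enriched on streptavidin microbeads. FACS then separated cells into low and high (top ~1%) gates by anti-HA (expression) and streptavidin (reagent binding) fluorescence. Genes were colony-PCR amplified, MiSeq 2 × 250 sequenced and CDR-length filtered. A clone's polyreactivity label is that of its gate of origin.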
Take “QVQLVESGGGLVQAGGSLRLSCAASGLTFLLNAMGWYRQAPGKERELVAAITWRGGRTYYADSVKGRFTISRDNAKNTVYLQMNSLKPEDTAVYYCAAVPVVQSQPTYYYWGQGTQVTVSS”: the “polyreactivity (PSR sort gate)” value is recorded as “high polyreactivity”.

As for “QVQLVESGGGLVQAGGSLRLSCAASGRNFRRYAMGWYRQAPGKERELVATISGSGTSTYYADSVKGRFTISRDNAKNTVYLQMNSLKPEDTAVYYCAAGNPYYRTSQYYHWGQGTQVTVSS”, the “polyreactivity (PSR sort gate)” value is given as “high polyreactivity”.

Take “QVQLVESGGGLVQAGGSLRLSCAASGFIFRYYAMGWYRQAPGKERELVAAISGSGGGTYYADSVKGRFTISRDNAKNTVYLQMNSLIPEDTAVYYCAATWTQPQPGYYPYYYWGQGTQVTVSS”: the “polyreactivity (PSR sort gate)” value is “high polyreactivity”.

With “QVQLVESGGGLVQAGGSLRLSCAASGRTFRGNAMGWYRQAPGKERELVAVITSGDSTYYADSVKGRFTISRDNAKNTVYLQMNSLKPEDTAVYYCATKSRFSRGKAYYYWGQGTQVTVSS”, the “polyreactivity (PSR sort gate)” value is given as “high polyreactivity”.

Take “QVQLVESGGGLVQAGGSLRLSCAASGSIFVYYAMGWYRQAPGKERELVAAINFRGGNTYYADSVKGRFTISRDNAKNTVYLQMNSLKPEDTAVYYCAADYRWKWIGGARYDYWGQGTQVTVSS”: the “polyreactivity (PSR sort gate)” value is “low polyreactivity”.

As to “QVQLVESGGGLVQAGGSLRLSCAASGRTFSRNAKGWYRQAPGKERELVAAISWSGGSTYYADSVKGRFTISRDNAKNTVYLQMNSLKPEDTAVYYCAKVLGRTYNYWGQGTQVTVSS”, the “polyreactivity (PSR sort gate)” value is “high polyreactivity”.

“QVQIVESGGVLVQAGGSIRLSCDASGSLFTIYAMGCYRQAPGKERELVAAITWSGGSTYYADSVKGRYTISRDNAKNTVNLQMNSLKPEDTAVYYCAADAYTGDIPYWWPWNNEYDYWGQGTQVTLSS”: the “polyreactivity (PSR sort gate)” value is given as “low polyreactivity”.

On to “QVQLVESGGGLVQAGGSLRLSCAASVRTFYIYAMGWYIQAHGKERELVAAITSVGSTNYADSVKGRFTISRDNAKNTVNLQMNSLKPEDTAVYYCAAESTEGTSGDYDYWGQGTQVTVSS”, for which the “polyreactivity (PSR sort gate)” value is recorded as “low polyreactivity”.

In the case of “QVQLVESGGGLVQAGRTLRLSCAASGFIFFDNAMGWYRQAPGKERELVAVISSSGTSTYYADAVKGRFTISRDNAKNTVYLQMNSLKPDDTAVYYCNATARTGVYLESDYWGQGTQVTVSS”, the “polyreactivity (PSR sort gate)” value is listed as “low polyreactivity”.

In the case of “QVQLVESGGGLVQAGGSLRLSCAASGRTSLAYSMGWYRQAPGKERELVAAINTRGGSTYYADSVKGRFTISRDNAKNTVYLQINSLKPEDTAVYYCAKGPRLYFTPDKAHWKYDSWGQGTQVTVSS”, the “polyreactivity (PSR sort gate)” value is recorded as “low polyreactivity”.

Turning to “QVQLVESGGGLVQAGRSLRLSCAASGSTFRQNAMGWYRQAPGKERELVAGITFSSGSTYYADSVKGRFTISRDIAKNTLYLQMNSLKPEDTAVYYCAVRNASKNRKYYYWGQGTQVTVSS”, the “polyreactivity (PSR sort gate)” value is recorded as “high polyreactivity”.

For the sequence “QVHLQEIGGGLVQAGGSLRQSCAASGTISDSGLMGWYRQAPGKERELVAGISSGGITNYADSVKGRFTISRDNAKNTVYLQMNSLKPEDTAVYWGQGTQVTVSS”, the “polyreactivity (PSR sort gate)” value is “low polyreactivity”.

Take “QDQLVESGGGLVQAGGSLRLSCAASGLTFGYYAMGWYRQAPGKERELVAAINSGGSTYYADSVKGRFTISRDNAKNTVYFQMNSLKPEDTAVYYCNATLDLYDSVSYTGPGMDYWGQGTQVTVSS”: the “polyreactivity (PSR sort gate)” value is “low polyreactivity”.

Regarding “QVQLVESGGGLVQAGGSLRLSCAPSGSTFFTYAMGWYRQAPGKERELVASISIGGSTNYADSVKGRFTISRDNAKNTVYLQMNSLIQEDSAVYYCAIRYFTFGVDYEYWGQGTQVTVSS”, the “polyreactivity (PSR sort gate)” value is listed as “low polyreactivity”.

Take “QVQLVESGGGLVQAGGSLRISCAASGIIFSPYVMGWYRQAPGKERELVAAITTGDSTNYADSVKGRFTISRDNAKNTVYLQMKSLKPEDSAVYYCNADLYVGYLYYLFDYWGQGTQVSVSS”: the “polyreactivity (PSR sort gate)” value is “low polyreactivity”.

For “QVQLVESGGGLVQAGGSLRLSCAASGRTFLPYAMGWYRQPPWKERELVAAISYRGVSTYYADSVKGRFTISRDNAKYSVYLQMNSLKAEDTAVYYCAARSWANYDFWGHGTQVTVSS”, the “polyreactivity (PSR sort gate)” value is recorded as “high polyreactivity”.

For the sequence “QVQLVESGGGLVQARGSLRLSSAASGYIFYHYAMGWYRQSPGKERELVAAISSGGGSTYYADSVKGRFTISRDYAKNTVSLQINSLKPEDTAVYYCNAVRYYTKYDYWGQGTQVTVSS”, the “polyreactivity (PSR sort gate)” value is recorded as “high polyreactivity”.

For the sequence “QVQLVESGGGLVQAGGSLRLSCAASGSIITVNAMGWYRQAPGKEREFVAGITSIGGRTYYADSVMGRFTISRDNAKNTVYLQMYSLKPEDTAVYYCNKRSYRARYDYWGQGTQVTVSS”, the “polyreactivity (PSR sort gate)” value was “high polyreactivity”.

Consider “QVQLVESGGGLVQAGGSHRLSCAASGSTLSSYAMGWYRQAPGKERELVAAISSSSGSTYYADSVKGRFTISRDNAKNTVYLQMNSLKPEDTAVYYCAADFRYWGQGTQVTVSS”, for which the “polyreactivity (PSR sort gate)” value is given as “low polyreactivity”.

In the case of “QVQLVETGGGLVQAGGSLRLSCAASGIIIGYYAMGWYRQAPGKEREMVAAINQDGSSTYYADSVKGRFTISRDNAKNTVYLQMNSLTPEDTAVYYCNARGVPRQDARMGYWGQGTQVTVSS”, the “polyreactivity (PSR sort gate)” value was “low polyreactivity”.

Consider “QVQLVESGGGLVQPGGSLRLSCAASGSIFIGYAMGWYRQAPGKERELVASIRNGGSTNYADSVKGRFTISRDNAKNTVYLQMNSLKPEDTAVYYCAGRYPVFLVSFGFDYWGQGTQVTVSS”, for which the “polyreactivity (PSR sort gate)” value is given as “low polyreactivity”.

For “QVQLVESGGGLVQAGGSLRLSCAASGYTFTRNAMGWYRQAPGKERELVATISGSGGGTYYADSVKGRFTISRDNAKNTVYLQMNSLKPEDTAVNYCNARRWFYWQGTARYDYWGQGTQVTVSS”, the “polyreactivity (PSR sort gate)” value is on record as “low polyreactivity”.

On to “QVQLVESGGGLVQAGGSLRLSCAASGITFYPYTMGWYRQAPGKERELVASISTSGTNYADSVKGRFTISRDNAKNTVYLQMNSLKPEDTAVYYCAADIWSYYRSTHVDSWGQGTQVTVSS”, for which the “polyreactivity (PSR sort gate)” value is given as “low polyreactivity”.

In the case of “QVQLVESGGGLVQAGGSLRLSCADSGSTLRRNAMGWYRQAPGKERELVAAISRTGASTYYADSVKGRFTISRDNAKNTVYLQMNSLKPEDTAVYYCAARANYIFFGMDYWGQGTQVTVSS”, the “polyreactivity (PSR sort gate)” value is given as “high polyreactivity”.

As to “QVQLEESGGGLVQAGGSLRLSCAASGFTFYSYAKGCSRQAPGKERELVAAISWSGSRTYYADSVKGRFTISRDNAKNTVYLQMNSLKPEDTAVYVCNKYLPRHRYDFDYWGQGTQVTVSS”, the “polyreactivity (PSR sort gate)” value is listed as “high polyreactivity”.

As for “QVQLVESGGGLVQAGGSLRLSCAASGLTFYYYAMGWYRQAPGKEREIVAAISRSGGTTYYADSVKGRFTISRDTAKNTVYLQMNSLKPEDTAVYYCNAQWWRYWPSQVIFDYWGQGTQVTVSS”, the “polyreactivity (PSR sort gate)” value is “high polyreactivity”.

For the sequence “QAQLQESGGSLVQAGGGMRLSCAASGYISVGSVMGWYRQAPSKERELVASIDQGANTNYADSVKGRFTISRDNAKNNVYLQMNSLKPEDTAVYYCATETTYILNYWGQGTQVTVSS”, the “polyreactivity (PSR sort gate)” value is “low polyreactivity”.

“QVQLVESGGGLVQAGGSLRLSCAASGIIFRYNAMGWYSQAPGKDRELVAAITYRGGSTRYADSVKGRFTISRDNAKNTVYLQMNSLKPEDTAVYYCNAQRRTYIYDYWGQGTQVTVSS”: the “polyreactivity (PSR sort gate)” value is “high polyreactivity”.

Consider “QVQLVESGGGLVQAGGSLRLSCAASGYTFGSNVMGWYRQAPGKERELVAAITFSGGSTYYADSVKRRFTISRDNAKNTVFLLMIRLKPEDTAVYYCAVRYVRYYAWYYYWGQGTQVTVSS”, for which the “polyreactivity (PSR sort gate)” value was “high polyreactivity”.

“QVQLVESGGGLVQAGGSLRLSCAASGSTFDVYTMGWYRQAPGKERELVATISGDDGSTYYADSEKGRFTISRDNAKNTVSLQMNSLKPEDTAVYYCAADYGGFPNYYSTGDYWGQGTQVTVSS”: the “polyreactivity (PSR sort gate)” value is “low polyreactivity”.

As for “QVQLVESGRGLVQAGGSLRLSCAASGRIFYYNDMGWYRQAPGNERELFAAITWTDDGTYYADSVKGRFTISRDNAKNTVYLQMNSLKPVDTAVYYCAKDYNRTVEDWAKVNGFDFWGQVTQVTVSS”, the “polyreactivity (PSR sort gate)” value is “low polyreactivity”.

For “QVQLVESGGGLVQEVGSLRLSCAASGSTIYWYAMGWSRQAPGKEMEIVAAISLGSGSTYYADSVKGRFTISRDNAKNTVYLQMNSLKPEDTAVYYCATRGSAWGRSYYYWGQGTQVTVSS”, the “polyreactivity (PSR sort gate)” value is “high polyreactivity”.

Consider “QVQLVESGGCLVQAGGSLRLSCAASGFIFGYYAMGWYRPPPGKESELVAAISWSGVSTYYADSVKGRFTISRDNAKNTVYLQMNSLKPEDTAVYYCAVGYVLTGVFQARFDYWGQGTQATVSS”, for which the “polyreactivity (PSR sort gate)” value was “high polyreactivity”.

Take “QVQLVESGGGLVQAGGTLRLSCAASGSTLYPYDMGWYRQAPGKERELVAAIDSGGSTNYADSVKGRFTISRDNAKNTVYLQMNRLKPEDTAVYYCAADASGENDYWGQGTQVTVSS”: the “polyreactivity (PSR sort gate)” value is “low polyreactivity”.

For “QVQLVESGGGLVQAGGSLRLSCAASGDIFDAYAMGWYRQAPGKERELVAAISRSGGSTYYADSVKGRFTISRDNAKNTVYLQMNSLKPEDTAVYYCATRFSRRYVRYDYWGQGTQVTVSS”, the “polyreactivity (PSR sort gate)” value was “high polyreactivity”.

Consider “QVQLVQSGGGLVQAGGSLRLSCADSGRTFTRYTMGWYRQAPGKERELVAAISSGGSTTYADSVKGRFTISRDNAKNTVYLQMNSLKPEDTAVYYCAAGLVYRGYRRDYWGQGTQVTVSS”, for which the “polyreactivity (PSR sort gate)” value is listed as “low polyreactivity”.

As for “QDQLVEAGGGLVQAGGSLRLSCAASRRTFWKYARGWYIQAPGKERELVAAISSSGGNTYYADSVKGRFTISRDNAKNTVYLQMNRLKPEDTAVYYCAAPLPRGAYFYWGQGTQVTVSS”, the “polyreactivity (PSR sort gate)” value was “high polyreactivity”.

For “QVQLVESGGGLVQAGGSLRLSCAASGRTLGGYAMGWYIQATGKERELVAAITRRGGSTYYADSVKGRFTISRDNAKNTVYLQMNSLKPEDTAVYYCAARWYARSLTRFNYWGQGTQVTVSS”, the “polyreactivity (PSR sort gate)” value was “high polyreactivity”.

On to “QVQLVESGGGLVQAGGSLRLSCAASGSTFARYAMGWYRQAPGKERELVAAISGGGGSTYYADSVKGRFTISRDNAKNTVYLQMNSLKPEDTAVYYCAKLLARGNRYDSWGQGTQVTVSS”, for which the “polyreactivity (PSR sort gate)” value is “high polyreactivity”.

In the case of “QVQLQESGGGLVQAGVSLRLSCAASGSIFADVQMGWYRQAPGKERELVASIIFRGTTTYYADSVKGRFTISRDNAKNTVYLQMSSLKPEDTAVYYCAVGRSEGGDFAYWGQGTHVTVSS”, the “polyreactivity (PSR sort gate)” value is on record as “low polyreactivity”.

With “QVQLVESGGGLVQAGGSLRLSCAASGRIFQNYAAMGRYRPPPGKERELVASIRATGGSTYYADSVKGRFTISRDNAKNTVYLQMNSLKPEDTAVYYCAARFAAKSLPAYDYWGQGTQVTVSS”, the “polyreactivity (PSR sort gate)” value is listed as “low polyreactivity”.

Source of the values: the nanobody polyreactivity screen of Harvey et al. (2022).
